Measurements published in patent US20140127211A1.

What was measured:
[1] = target: full-length human Notch3 expressed on the cell surface (human) (UniProt Q9UM47); experiment: flow cytometry, negative control antibody, U2OS/hNotch3 cells
[2] = target: full-length human Notch3 expressed on the cell surface (human) (UniProt Q9UM47); experiment: flow cytometry, negative control antibody, MDA-MB-468/hNotch3 cells
[3] = target: full-length human Notch3 expressed on the cell surface (human) (UniProt Q9UM47); experiment: flow cytometry, negative control antibody, MDA-MB-468 cells
[4] = target: full-length human Notch3 expressed on the cell surface (human) (UniProt Q9UM47); experiment: flow cytometry, negative control antibody, HCC2429 cells
[5] = target: full-length human Notch3 expressed on the cell surface (human) (UniProt Q9UM47); experiment: flow cytometry, negative control antibody, OVCAR3 cells

Sequence of full-length human Notch3 expressed on the cell surface (human) (Q9UM47 40-2321): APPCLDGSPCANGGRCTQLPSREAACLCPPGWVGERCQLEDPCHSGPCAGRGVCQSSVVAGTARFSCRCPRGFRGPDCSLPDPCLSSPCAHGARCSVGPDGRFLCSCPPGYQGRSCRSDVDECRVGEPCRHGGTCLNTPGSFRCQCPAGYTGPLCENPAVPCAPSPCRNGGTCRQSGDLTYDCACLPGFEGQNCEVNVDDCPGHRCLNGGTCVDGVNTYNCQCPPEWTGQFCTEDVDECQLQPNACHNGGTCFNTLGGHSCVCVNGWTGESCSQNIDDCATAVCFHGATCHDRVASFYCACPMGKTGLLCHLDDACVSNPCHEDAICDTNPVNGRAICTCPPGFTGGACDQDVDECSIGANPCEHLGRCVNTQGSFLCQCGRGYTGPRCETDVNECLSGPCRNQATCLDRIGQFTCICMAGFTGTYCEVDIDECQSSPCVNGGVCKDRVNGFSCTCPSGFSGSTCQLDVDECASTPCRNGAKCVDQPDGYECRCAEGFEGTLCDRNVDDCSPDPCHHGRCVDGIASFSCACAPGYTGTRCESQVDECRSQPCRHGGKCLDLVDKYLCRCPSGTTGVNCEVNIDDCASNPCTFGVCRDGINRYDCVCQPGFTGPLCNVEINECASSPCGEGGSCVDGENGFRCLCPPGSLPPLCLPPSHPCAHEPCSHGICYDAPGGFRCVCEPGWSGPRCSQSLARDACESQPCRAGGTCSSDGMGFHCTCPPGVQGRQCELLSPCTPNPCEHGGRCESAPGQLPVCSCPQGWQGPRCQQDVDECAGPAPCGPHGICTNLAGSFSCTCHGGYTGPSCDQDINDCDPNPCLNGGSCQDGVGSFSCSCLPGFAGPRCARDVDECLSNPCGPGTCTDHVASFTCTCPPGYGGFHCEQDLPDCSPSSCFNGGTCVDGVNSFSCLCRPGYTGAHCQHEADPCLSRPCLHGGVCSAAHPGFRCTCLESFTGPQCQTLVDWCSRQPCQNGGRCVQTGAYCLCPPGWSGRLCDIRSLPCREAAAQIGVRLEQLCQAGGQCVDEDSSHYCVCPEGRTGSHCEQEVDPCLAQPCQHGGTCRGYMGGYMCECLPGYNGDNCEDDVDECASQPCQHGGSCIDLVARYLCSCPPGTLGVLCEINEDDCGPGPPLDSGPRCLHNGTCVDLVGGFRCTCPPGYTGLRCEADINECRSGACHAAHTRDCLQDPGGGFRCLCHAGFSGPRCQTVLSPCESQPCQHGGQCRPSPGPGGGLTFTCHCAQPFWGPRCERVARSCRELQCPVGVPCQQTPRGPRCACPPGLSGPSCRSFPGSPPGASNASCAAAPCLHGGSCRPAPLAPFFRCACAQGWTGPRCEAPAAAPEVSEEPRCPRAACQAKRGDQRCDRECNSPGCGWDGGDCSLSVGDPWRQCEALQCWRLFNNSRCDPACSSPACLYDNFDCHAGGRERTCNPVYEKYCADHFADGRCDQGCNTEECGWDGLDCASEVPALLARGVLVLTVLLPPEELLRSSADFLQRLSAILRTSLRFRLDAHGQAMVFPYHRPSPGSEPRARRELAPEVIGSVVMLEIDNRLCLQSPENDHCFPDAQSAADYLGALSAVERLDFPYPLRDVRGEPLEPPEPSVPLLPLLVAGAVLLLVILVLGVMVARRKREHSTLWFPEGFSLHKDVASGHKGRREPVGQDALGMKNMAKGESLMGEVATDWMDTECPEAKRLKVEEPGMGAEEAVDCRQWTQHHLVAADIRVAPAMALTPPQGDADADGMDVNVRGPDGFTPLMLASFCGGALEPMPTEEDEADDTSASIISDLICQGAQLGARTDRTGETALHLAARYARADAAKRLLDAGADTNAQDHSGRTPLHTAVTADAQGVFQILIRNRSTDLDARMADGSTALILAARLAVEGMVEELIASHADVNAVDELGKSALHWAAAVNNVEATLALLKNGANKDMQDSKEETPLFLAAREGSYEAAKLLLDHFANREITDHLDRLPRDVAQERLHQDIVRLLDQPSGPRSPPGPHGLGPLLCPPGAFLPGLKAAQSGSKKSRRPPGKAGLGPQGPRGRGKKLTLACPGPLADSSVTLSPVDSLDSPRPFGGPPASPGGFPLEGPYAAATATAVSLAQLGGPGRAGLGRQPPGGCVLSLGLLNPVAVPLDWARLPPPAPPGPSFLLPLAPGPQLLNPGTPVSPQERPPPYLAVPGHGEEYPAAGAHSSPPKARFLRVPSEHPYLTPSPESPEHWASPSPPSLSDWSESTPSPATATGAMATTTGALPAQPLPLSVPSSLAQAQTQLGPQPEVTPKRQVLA

huNeg8.8 negative control antibody
MFI [1]: 6 MFI | MFI [2]: 6 MFI | MFI [3]: 6 MFI | MFI [4]: 3 MFI | MFI [5]: 5 MFI
